Consider one compound from publication PMC5149022, “A ^99mTc-tricine-HYNIC-labeled Peptide Targeting the Melanocortin-1 Receptor for Melanoma Imaging” (Iranian Journal of Pharmaceutical Research : IJPR, 2016).

Bridge positions count the residues as written; N and C are the ends. Square brackets hold non-standard residues; d marks the D form. Peptide text beside a SMILES is read from it. * marks the point of attachment. HYNIC = NNc1ccc(C(=O)*)cn1; Nle = CCCC[C@H](N)C(=O)O; GABA = NCCCC(=O)O

A short description of series [1]: Stability of radiolabeled peptide in human serum. The series is classed as in vitro ADME. As to conditions: fresh human serum, 37 °C, RP-HPLC with gamma detector. As for the experimental part:
(§1) The stability of radiolabeled peptide in aqueous solution was evaluated by incubation of the reaction mixture at ambient temperature (25 °C) up to 24 h. Stability in human serum at 37 °C was tested in parallel after adding 100 μL of reaction mixture to 1mL of fresh human serum. The incubation mixtures were sampled at 1,6 and 24 h time points. Serum samples (100–200 μL) were treated with ethanol (200–400 μL) and centrifuged (4000 g, 5 min, 4 °C) to precipitate the serum proteins.20–100 μL aliquots from the supernatant were separated to assess the degradation of ^99mTc labeled peptide by RP-HPLC. 100 μL aliquots from the 25 °C incubated mixture were passed from a 0.22 μ filter to eliminate the probable ^99mTc colloids and then, 5–20 μL of filtrate were analyzed by RP-HPLC as well.

A short description of series [2]: Stability of radiolabeled peptide in aqueous solution. Format: physicochemical. As for the experimental part:
as §1

Series [3] in a line: Protein binding by precipitation method. The series is classed as in vitro ADME. As for the experimental part: Protein binding of radiolabeled peptide was measured by precipitationmethod resulting 37%forradioconjugate. Plasma proteins binding could be due to transchelation, which is possible with exchange reactions among co-ligands and the possible action of HYNIC as a mono- or bi-dentated ligand complexing ^99mTc.

In series [4] the test system is B16/F10 tumor (MC1 receptor). The series can be described thus: Biodistribution in B16/F10 tumor bearing nude mice. Conditions: nude mice with B16/F10 tumor. The series is classed as in vivo. As for the experimental part: Animal experiments were performed in compliance with the regulations of our institution and with generally accepted guidelines governing such work.Groups of three nude mice were used in each experiment. A suspension of B16/F10 cells (1×10^7) in PBS was subcutaneously injected in the right flank of each nude mice. Seven days after inoculation, the tumors were inducted and then, ^99mTc-tricine-HYNIC-peptide (20 MBq) was injected via a femoral vein. Also a group of three animals were injected with peptide ([…]) in saline (0.9%; […]) as a co-injection with the radiopeptide (blocked animals). After 1, 4 and 24 h, the groups of mice were killed, then the organs of interest were excised, weighed and counted in the gamma counter. The percentage of the injected dose per gram (% ID/g) was calculated for each tissue. At 4 h after injection, accumulation of the tracer in tumor area was also assessed by planar scintigraphy under ether anesthesia.

Consider `CCCC[C@H](NC(=O)CCCNC(=O)c1ccc(NN)nc1)C(=O)N[C@H]1CC(=O)NCCCC[C@@H](C(N)=O)NC(=O)CNC(=O)[C@H](Cc2c[nH]c3ccccc23)NC(=O)[C@H](CCCNC(=N)N)NC(=O)[C@@H](Cc2ccccc2)NC(=O)[C@H](Cc2c[nH]cn2)NC1=O` [^99mTc-tricine-HYNIC-peptide, ^99mTc-tricine-HYNIC-GABANle-CycMSHhept, metal not drawn] ({HYNIC-GABA}-[Nle]DH[dF]RWGK-NH2; lactam 2-8), for which the “labeling yield remaining after incubation in human serum” value in series [1] (24 h) is 75%. Also, the “stability in human serum (release of 99mTcO4- or peptide degradation)” value in series [1] (100 μL reaction mixture in 1 mL serum, up to 6 h, ethanol precipitation) is “no significant release of ^99mTcO4^− or peptide degradation”. Also, the “labeling yield remaining after incubation in aqueous solution” value in series [2] (reaction mixture, ambient temperature (25 °C), 24 h, RP-HPLC with gamma detector) is 75%. Also, the “stability in aqueous solution (release of 99mTcO4- or peptide degradation)” value in series [2] (reaction mixture, ambient temperature (25 °C), up to 6 h, 0.22 μ filtered, RP-HPLC with gamma detector) is “no significant release of ^99mTcO4^− or peptide degradation”. The radiochemical stability entry in series [2] (up to 6 h post labeling) is “excellent radiochemical stability”. The compound further yielded a protein binding in series [3] of 37%. The same compound had a kidneys uptake in series [4] (20 MBq via femoral vein, 1 h after injection, n = 3) of 7.38 ± 0.56 % ID/g. In series [4] (20 MBq via femoral vein, 4 h, n = 3), this compound yielded a tumor uptake of 4.51 ± 0.11 % ID/g. In series [4] (1 h, n = 3), this compound came in with a blood uptake of 1.26 ± 0.13 % ID/g, an intestines uptake of 0.65±0.05 % ID/g and a liver uptake of 1.48 ± 0.08 % ID/g. Further, in series [4] (co-injection of cold peptide, time not stated), the “tumor uptake, blocked group” value came out at 2.33 % ID/g. In series [4] (time not stated), the liver uptake entry is listed as “lower than 2.0 % ID/g”.
